Consider 16 molecules from US20240116985A1, “STAPLED PEPTIDES AND METHODS THEREOF” (priority 2020, published 2024).

Starred links: 1 amine or outer side, 2 acyl side, 3 side chain; linkers in the order of their positions; H or OH if unused. Positions of bridges follow the written chain, without caps; N, C: chain ends. Non-standard residues stand in square brackets, D forms with d. Primed or numbered codes have the meaning given here. PyrS2″ = (S)-3-amino-1-((pent-4-en-1-yloxy)carbonyl)pyrrolidine-3-carboxylic acid (stapling residue), C=CCCCOC(=O)N1CC[C@@](N[*:1])(C(=O)[*:2])C1; B5(4) = 2,2-bis(4-pentenyl)glycine = 2-amino-2-(pent-4-en-1-yl)hept-6-enoic acid (stitching residue), C=CCCCC(CCCC=C)(N[*:1])C(=O)[*:2]; PyrS2 = (S)-3-amino-1-((pent-4-en-1-yloxy)carbonyl)pyrrolidine-3-carboxylic acid, C=CCCCOC(=O)N1CC[C@@](N[*:1])(C(=O)[*:2])C1; B5(27) = 2-amino-2-(pent-4-en-1-yl)hept-6-enoic acid (two alkene side-chain arms), C=CCCCC(CCCC=C)(N[*:1])C(=O)[*:2]; MePpzAsn = (S)-2-amino-4-(4-methylpiperazin-1-yl)-4-oxobutanoic acid, CN1CCN(C(=O)C[C@H](N[*:1])C(=O)[*:2])CC1; F2PipNva = (S)-2-amino-5-(4,4-difluoropiperidin-1-yl)pentanoic acid, O=C([C@H](CCCN1CCC(F)(F)CC1)N[*:1])[*:2]; F2PipAbu = (S)-2-amino-4-(4,4-difluoropiperidin-1-yl)butanoic acid, O=C([C@H](CCN1CCC(F)(F)CC1)N[*:1])[*:2]; MePpzNva = (S)-2-amino-5-(4-methylpiperazin-1-yl)pentanoic acid, CN1CCN(CCC[C@H](N[*:1])C(=O)[*:2])CC1; MePpzAbu = (S)-2-amino-4-(4-methylpiperazin-1-yl)butanoic acid, CN1CCN(CC[C@H](N[*:1])C(=O)[*:2])CC1; 4TriA = (S)-2-amino-3-(1H-1,2,3-triazol-4-yl)propanoic acid, O=C([C@H](Cc1c[nH]nn1)N[*:1])[*:2]; MorphAsn = (S)-2-amino-4-morpholino-4-oxobutanoic acid, O=C(C[C@H](N[*:1])C(=O)[*:2])N1CCOCC1; B5(3) = 2,2-bis(4-pentenyl)glycine (stitching residue), C=CCCCC(CCCC=C)(N[*:1])C(=O)[*:2]; MorphAbu = (S)-2-amino-4-morpholinobutanoic acid, O=C([C@H](CCN1CCOCC1)N[*:1])[*:2]; Phe(4-(3-Py)) = N[C@@H](Cc1ccc(-c2cccnc2)cc1)C(=O)O; Nva(5-morpholino) = N[C@@H](CCCN1CCOCC1)C(=O)O; Bta = N[C@@H](Cc1csc2ccccc12)C(=O)O; αAllylPro = C=CC[C@@]1(C(=O)O)CCCN1; tBuAla = CC(C)(C)C[C@H](N)C(=O)O; 3Thi = N[C@@H](Cc1ccsc1)C(=O)O

One may read the IC50 as the concentration that inhibits the measured activity by half.

The target of this assay is full-length beta-Catenin (Uniprot ID P35222) (Homo sapiens (Human)) (UniProt P35222). Description: fluorescence polarization competition; displacement of 5FAM-TCF4(10-53) from full-length beta-catenin.
Ac-[αAllylPro]D[tBuAla][B5(27)]DDAAFL[PyrS2][3Thi][Bta]W-NH2 (staple 1-4, 4-11) [I-1497] gave an IC50 of 50 nM.

Ac-[αAllylPro]D[tBuAla][B5(27)]DDAAFL[PyrS2][3Thi][Bta]T-NH2 (staple 1-4, 4-11) [I-1494] gave a half-inhibitory concentration (IC50) of 5 nM. Against the preceding molecule, the IC50 is about 10-fold lower.

Regarding Ac-[αAllylPro]D[tBuAla][B5(27)]DDAAFL[PyrS2][3Thi][Bta]V-NH2 (staple 1-4, 4-11) [I-1495], the half-inhibitory concentration (IC50) was 24 nM.

Ac-[αAllylPro]D[tBuAla][B5(27)]DDA[F2PipNva]FL[PyrS2][3Thi][Bta]Q-NH2 (staple 1-4, 4-11) [I-1502]: the 50% inhibitory concentration (IC50) is 34 nM.

Molecule Ac-[αAllylPro]D[tBuAla][B5(3)]DD[Phe(4-(3-Py))]AFL[PyrS2″]F[Bta]Q-NH2 (staple 1-4, 4-11) [I-1489] yielded an IC50 of 17 nM.

For Ac-[αAllylPro]D[tBuAla][B5(27)]DDA[F2PipAbu]FL[PyrS2][3Thi][Bta]Q-NH2 (staple 1-4, 4-11) [I-1505: Ac-PL3-Asp-Npg-B5-Asp-Asp-Ala-F2PipAbu-Phe-Leu-PyrS2-3Thi-BztA-Gln-NH2], the concentration for half-maximal inhibition (IC50) was 39 nM.

As to Ac-[αAllylPro]D[tBuAla][B5(3)]DDAAF[MorphAsn][PyrS2″][3Thi][Bta]Q-NH2 (staple 1-4, 4-11) [I-1487], the IC50 is 7 nM.

For the molecule Ac-[αAllylPro]D[tBuAla][B5(27)]DDA[MorphAbu]FL[PyrS2][3Thi][Bta]Q-NH2 (staple 1-4, 4-11) [I-1504], the 50% inhibitory concentration (IC50) was 46 nM.

Molecule Ac-[αAllylPro]D[tBuAla][B5(4)]DDA[MePpzAbu]FL[PyrS2][3Thi][Bta]Q-NH2 (staple 1-4, 4-11) [I-1506: Ac-PL3-Asp-Npg-B5-Asp-Asp-Ala-MePpzAbu-Phe-Leu-PyrS2-3Thi-BztA-Gln-NH2] returned an IC50 of 89 nM.

Molecule Ac-[αAllylPro]D[tBuAla][B5(3)]DDAAF[MePpzAsn][PyrS2″][3Thi][Bta]Q-NH2 (staple 1-4, 4-11) [I-1488] registered a 50% inhibitory concentration (IC50) of 6 nM.

The molecule Ac-[αAllylPro]D[tBuAla][B5(4)]DDA[MePpzNva]FL[PyrS2][3Thi][Bta]Q-NH2 (staple 1-4, 4-11) [I-1503] registered a concentration for half-maximal inhibition (IC50) of 38 nM.

In the case of Ac-[αAllylPro]D[tBuAla][B5(3)]DDAAF[F2PipNva][PyrS2″][3Thi][Bta]Q-NH2 (staple 1-4, 4-11) [I-1486], the 50% inhibitory concentration (IC50) was 5 nM. Against the preceding molecule, the IC50 is about 7.6-fold lower.

Ac-[αAllylPro]D[tBuAla][B5(27)]DDAAFL[PyrS2][3Thi][Bta]F-NH2 (staple 1-4, 4-11) [I-1496] gave an IC50 of 51 nM. This IC50 lies about 10-fold higher than the previous one.

Molecule Ac-[αAllylPro]D[tBuAla][B5(3)]DDAAFL[PyrS2″][3Thi][Bta]N-NH2 (staple 1-4, 4-11) [I-1492] registered an IC50 of 5 nM.

For the molecule Ac-[αAllylPro]D[tBuAla][B5(27)]DDA[Nva(5-morpholino)]FL[PyrS2][3Thi][Bta]Q-NH2 (staple 1-4, 4-11) [I-1501], the half-maximal inhibitory concentration (IC50) turned out to be 46 nM.

The molecule Ac-[αAllylPro]D[tBuAla][B5(27)]DDAAFL[PyrS2][3Thi][Bta][4TriA]-NH2 (staple 1-4, 4-11) [I-1498] displayed an IC50 of 48 nM.
